Experimental data from the supplement of paper PMC10567573.

B1: ANKRD9 (parent)
chain: VGAAGSARQELLGDRPRWQRLLGE

Variants of: B1
Assay: protein stability index of a GFP-peptide fusion (GPS, HEK-293T) (PSI 1-6); higher = more stable
Settings: c terminus: a fixed tail appended
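Also: lentivirally expressed fusions sorted by FACS into six bins by GFP to DsRed ratio, PSI derived from sequencing read proportions per bin multiplied by bin number.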

Protein stability index of substitutions, site by site:
G2: D 3.32; C 2.24; H 2.56; M 2.69; L 2.71; Q 4.06; V 2.33; P 3.11; T 3.06; S 3.39; E 3.29; Y 2.24; W 2; R 4.84; A 3.23
S6: C 1.21; H 2.88; M 3.65; F 2.85; A 2.6; N 3.77; E 3.88; K 2.72; D 3.8; V 2.86; I 2.27; L 2.49; R 2.62
A4: F 2.44; D 3.35; W 2.62; S 3.24; L 3.18; K 2.11; E 2.91; V 2.92; I 2.84; C 2.09; G 1.81; R 3.02; M 3.1; Y 2.08; T 4.35
R15: I 2.73; S 4.15; F 2.75; V 3.41; K 3.06; P 3.11; D 4.12; E 3.27; Q 3.96; Y 2.66; G 3.75; L 2.51; N 3.6; M 3.05; H 4.05; W 3.1
E10: V 3.25; W 1.76; S 3.54; D 3.37; Q 3; L 2.13; C 2.75; T 2.39; H 2.6; A 2.85; G 2.55; N 3.22; F 3.33; Y 3.03
L12: F 2.57; N 3.43; Y 3.21; H 3.6; T 3; Q 3.27; R 2.12; A 3.64; M 3.43; E 3.7
L21: T 3.13; F 2.68; C 3.75; E 4.67; S 4.52; M 3.03; A 3.28; W 3.23; Q 3.32; H 2.86; V 3.67; R 3.11
R8: I 3.08; T 2.76; D 3.53; C 3.02; P 2.94; Q 3.37; F 2.5; L 2.92; Y 2.96; H 3.39; V 3.32; K 3.15; G 3.68; N 4.03
L22: W 2.96; E 3.87; M 2.28; Q 3.64; P 3.77; V 3.68; R 3.67; K 3.57; G 3.31; C 3.35; T 3.69; S 3.96
A3: W 2.53; C 1.52; E 3.55; R 3.06; S 2.78; V 3.89; T 3.14; P 3.58; I 3.48; N 3.19; Q 3; H 2.91; M 2.53; F 2.52; G 3.49
D14: A 2.83; H 3.24; M 2.76; P 3.13; G 3.18; S 3.25; R 2.75; Q 2.35; L 2.36; V 2.27; C 1.39; I 2.56; E 3.27
G5: K 2.69; M 2.37; L 2.68; W 2.9; E 4.56; F 2.86; V 2.9; C 1.49; Y 1.93; A 3; P 3.53; S 4; R 2.27; D 2.48
G23: H 2.61; S 4.39; F 2.71; A 3.1
